Experiments:
thrombin = thrombin (UniProt P00734+P00734); test: FP
FOXM1 = molecular target: T1, FOXM1 (UniProt Q08050); details: PS; cited from earlier work
T1 sequence: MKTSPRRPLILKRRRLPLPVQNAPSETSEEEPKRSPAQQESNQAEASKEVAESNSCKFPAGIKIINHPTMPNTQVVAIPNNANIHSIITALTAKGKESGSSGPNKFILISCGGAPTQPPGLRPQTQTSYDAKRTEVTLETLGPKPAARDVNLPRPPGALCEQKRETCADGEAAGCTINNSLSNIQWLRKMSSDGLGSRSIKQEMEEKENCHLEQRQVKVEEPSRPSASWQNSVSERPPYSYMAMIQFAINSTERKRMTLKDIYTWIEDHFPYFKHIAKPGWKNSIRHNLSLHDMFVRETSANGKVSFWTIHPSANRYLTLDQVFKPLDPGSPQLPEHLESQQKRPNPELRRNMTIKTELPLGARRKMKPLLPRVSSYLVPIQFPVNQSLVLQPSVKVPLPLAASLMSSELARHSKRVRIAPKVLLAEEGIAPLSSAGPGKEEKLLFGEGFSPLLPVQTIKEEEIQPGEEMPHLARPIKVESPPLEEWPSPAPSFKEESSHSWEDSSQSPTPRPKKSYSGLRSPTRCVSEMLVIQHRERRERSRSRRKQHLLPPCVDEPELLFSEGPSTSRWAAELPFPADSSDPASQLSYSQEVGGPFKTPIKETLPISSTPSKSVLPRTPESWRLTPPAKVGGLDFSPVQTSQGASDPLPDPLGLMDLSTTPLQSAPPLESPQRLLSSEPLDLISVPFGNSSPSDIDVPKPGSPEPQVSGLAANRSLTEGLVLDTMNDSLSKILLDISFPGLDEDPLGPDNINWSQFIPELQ

## GGTTGGTGTGGTTGG [TBA(3)-2b]
thrombin; T3 replaced by 5-ethynyl-dU clicked to inactivated N-acyl sulfonamide biotin warhead 2b
  Kd: 395 nM

## GGTTGGTGTGGTTGG [TBA(9)-2b]
thrombin; T9 replaced by 5-ethynyl-dU clicked to inactivated N-acyl sulfonamide biotin warhead 2b
  Kd: 520 nM

## TCACTTCACACCGCATCTCTACGTCCGGTTGCGCTTTCCTTT [FBA]
FOXM1
  Kd: 65 nM
